Where two headings read alike, the source gives them in different places.
How the values were obtained:
[1] = target: T1, human TGFβ2, mature receptor-binding domain (human, UniProt P09858 303-414 (pig entry), The mature TGFβ2 is a disulfide-linked homodimer of this 112-residue chain. The 4A11 epitope spans both monomers (p-1207).); experiment: SPR
T1 construct: Peprotech; also called TGFb2
T1 sequence: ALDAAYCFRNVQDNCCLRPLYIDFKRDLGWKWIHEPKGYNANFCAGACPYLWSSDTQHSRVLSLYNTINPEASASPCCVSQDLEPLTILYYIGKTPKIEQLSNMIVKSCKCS

[2] = target: T2, human TGFβ3, mature dimeric form (human, UniProt P10600 301-412); experiment: SPR
T2 construct: Peprotech, expressed in E. coli; also called TGFb3
T2 sequence: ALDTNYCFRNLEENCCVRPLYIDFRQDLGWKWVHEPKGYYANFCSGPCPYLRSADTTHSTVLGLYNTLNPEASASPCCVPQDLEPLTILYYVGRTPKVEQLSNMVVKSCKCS

[3] = target: T1, human TGFβ2, mature receptor-binding …; experiment: SPR; remark: listed apart in the source
[4] = target: T2, human TGFβ3, mature dimeric form; experiment: SPR; remark: listed apart in the source
[5] = target: T1, human TGFβ2, mature receptor-binding …; experiment: cell-based or functional assay
[6] = target: T2, human TGFβ3, mature dimeric form; experiment: cell-based or functional assay
[7] = target: human TGFβ1, mature receptor-binding domain (human, UniProt P01137 279-390); experiment: cell-based or functional assay
[8] = target: T1, human TGFβ2, mature receptor-binding …; experiment: cell-based or functional assay; remark: listed apart in the source
[9] = target: T2, human TGFβ3, mature dimeric form; experiment: cell-based or functional assay; remark: listed apart in the source

Chain of human TGFβ1, mature receptor-binding domain (P01137 279-390 limits assumed): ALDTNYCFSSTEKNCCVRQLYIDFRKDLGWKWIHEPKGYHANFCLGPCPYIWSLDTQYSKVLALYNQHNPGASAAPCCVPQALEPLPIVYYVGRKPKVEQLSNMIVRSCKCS

B1: 4A11 (antibody, V domains shown)
VH: QSLEESGGRLVTPGTPLTLTCTVSGFSLSSYTVNWVRQAPGKGLEWIGYISYGGSAYYASWANGRFTISKTSATVDLKITSPTTEDTATYFCARHMQVGGAPTGSMAAFDPWGPGTLVTVSS
VL: AAVLTQTPSPVSAAVGGTVSISCQSSQSVYNNNYLSWFQQKPGQPPKLLIYGASTLTSGVPSRFKGSGSGTQFTLTISDVQCDDAATYYCAGGYSGSSDKYAFGGGTEVVVKG
notes: anti-TGFβ2/3, recombinant rabbit monoclonal; some paragraphs print the H/L pair as 32/33; also called Rb1.4A11; Rbt 4A11
Kd [1]: 0.008 nM | Kd [2]: 0.005 nM | Kd [3]: < 0.01 nM | Kd [4]: < 0.01 nM | HEKBlue TGFβ blocking IC50 [5]: 0.09 nM | HEKBlue TGFβ blocking IC50 [6]: 0.06 nM | HEKBlue TGFβ blocking IC50 [7]: > 200 nM | cell-based IC50 [8]: < 0.25 nM | cell-based IC50 [9]: < 0.25 nM

Reference: patent publication US20210301005A1 (Genentech, published 2021)
